Among the data in US20040161739A1 are increase in metabolic activity (microphysiometer), EC50 of the acidification response (microphysiometer) and acidification rate values, retold here.

Test [1] addresses IL-8A interleukin receptor (UniProt P25024). Description: cell-based or functional assay.
Test [2] addresses active human CCR5 chemokine receptor (human) (UniProt P51681). The test can be described thus: cell-based or functional assay.
UniProt P51681, sequence (P51681 whole entry): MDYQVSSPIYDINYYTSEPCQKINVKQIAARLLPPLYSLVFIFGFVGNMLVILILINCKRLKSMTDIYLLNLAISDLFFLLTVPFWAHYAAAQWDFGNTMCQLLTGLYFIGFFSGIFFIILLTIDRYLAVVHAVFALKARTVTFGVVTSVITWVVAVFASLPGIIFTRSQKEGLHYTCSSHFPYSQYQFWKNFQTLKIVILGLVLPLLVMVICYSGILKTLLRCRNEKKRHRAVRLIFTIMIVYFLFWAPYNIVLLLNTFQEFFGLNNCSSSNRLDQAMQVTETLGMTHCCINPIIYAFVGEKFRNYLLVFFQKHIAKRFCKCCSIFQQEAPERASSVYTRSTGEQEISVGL

In the case of “recombinant human IL-8 (Interleukin 8) (from UniProt P10145 28-99) (ligand)”, the increase in metabolic activity (microphysiometer) in test [1] worked out at 160%.

As for “recombinant human MIP-1α (Macrophage Inflammatory Protein 1 α) (from UniProt P10147 27-92) (ligand)”, in test [2], the EC50 of the acidification response (microphysiometer) is 3 nM and the acidification rate at 30 nM, percent of baseline level (% of baseline level) stood at 156.
